The text below walks through data of patent publication US20120277164A1 (IMPERIAL INNOVATIONS, published 2012).

The target of assay [1] is T1, Gadd45β/MKK7 complex (biotin-hGadd45β with coated GST-MKK7, ELISA format) (human) (UniProt O75293).
T1 sequence (biotinylated (sites not stated), looked up) 1: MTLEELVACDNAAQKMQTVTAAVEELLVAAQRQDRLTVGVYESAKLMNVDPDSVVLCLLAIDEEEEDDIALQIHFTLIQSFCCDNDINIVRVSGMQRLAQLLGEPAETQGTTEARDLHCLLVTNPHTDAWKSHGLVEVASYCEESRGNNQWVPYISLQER
T1 sequence (biotinylated (sites not stated), looked up) 2: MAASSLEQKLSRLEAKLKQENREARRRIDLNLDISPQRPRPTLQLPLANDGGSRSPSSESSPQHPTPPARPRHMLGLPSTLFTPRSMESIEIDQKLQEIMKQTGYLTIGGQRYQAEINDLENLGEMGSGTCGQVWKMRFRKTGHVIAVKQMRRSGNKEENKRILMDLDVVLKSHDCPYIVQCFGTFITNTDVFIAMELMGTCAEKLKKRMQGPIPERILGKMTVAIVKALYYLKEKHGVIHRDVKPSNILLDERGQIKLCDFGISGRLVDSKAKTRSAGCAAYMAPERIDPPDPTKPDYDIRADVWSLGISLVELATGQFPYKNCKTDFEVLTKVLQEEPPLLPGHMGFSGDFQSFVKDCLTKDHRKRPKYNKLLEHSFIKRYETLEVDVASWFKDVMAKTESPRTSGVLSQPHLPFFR
The assay can be described thus: competition ELISA; coated MKK7 42 nM, biotin-hGadd45β 21 nM, competitor 42 nM nominal. For orientation: An ELISA detects its analyte on a solid surface through an enzyme-linked reagent.

Assay [2] has as its target T1, Gadd45β/MKK7 complex (biotin-hGadd45β with coated GST-MKK7, ELISA format) (human). Kind of assay: competition ELISA; coated GST-MKK7, biotin-hGadd45β; single dose.
Assay [3] shares this target. The assay can be described thus: competition ELISA; coated GST-MKK7 42 nM, biotin-hGadd45β 21 nM.
Assay [4] shares this target. The assay can be described thus: derived from the in vitro ELISA competition IC50 (Gadd45β/MKK7).
The target is the same in assay [5]. The assay can be described thus: competition ELISA; coated MKK7, biotin-hGadd45β (FIG. 3C).
Assay [6] addresses T2, Gadd45β/MKK7 complex (biotin-hGadd45β with coated GST-MKK7, ELISA format) (human, UniProt O75293 1-160; O14733 1-419, biotinylated (sites not given)).
T2 construct: not shown: glutathione S-transferase (GST) fusion partner
T2 sequence (looked up) 1: T1 sequence (biotinylated (sites not stated), looked up) 1
T2 sequence (looked up) 2: T1 sequence (biotinylated (sites not stated), looked up) 2
The assay can be described thus: competition ELISA; coated GST-MKK7, biotin-hGadd45β; single dose.

In assay [7] the target is T2, Gadd45β/MKK7 complex (biotin-hGadd45β …). The assay can be described thus: ELISA competition: coated GST-MKK7 (42 nM), soluble biotin-hGadd45β (21 nM), increasing peptide; read-out % binding of biotin-hGadd45β to MKK7.
Assay [8] concerns the target T1, Gadd45β/MKK7 complex (biotin-hGadd45β with coated GST-MKK7, ELISA format) (human). Kind of assay: competition ELISA after 48-hr pre-incubation of the peptide with human serum at 37 °C.
Assay [9] shares this target. Kind of assay: ELISA competition assay: coated MKK7, soluble biotin-hGadd45β; peptide pre-incubated 48 hr with human serum at 37° C.; after 48-hr incubation with human serum at 37° C.
For assay [10], the target named is T2, Gadd45β/MKK7 complex (biotin-hGadd45β …). The assay can be described thus: competition ELISA; coated MKK7 42 nM, biotin-hGadd45β 21 nM, competitor 42 nM nominal.

Square brackets hold non-standard residues; d marks the D form. * marks the point of attachment. Fmoc = O=C(OCC1c2ccccc2-c2ccccc21)*; Cbz = O=C(OCc1ccccc1)*; Bz = O=C(c1ccccc1)*; βAla = NCCC(=O)O

“Fmoc(βAla)2-YDHQ-NH2 as printed in row r19 of Table I” yielded a % Inhibition of Gadd45β-MKK7 binding in assay [1] of 26%.

In assay [2], Fmoc-YDFQ-NH2 returned a % Inhibition of Gadd45β-MKK7 binding of 19%.

In the case of “mDTP3 (Ac-D-Tyr-D-Arg-D-Phe-NH2) (peptide)”, in assay [3], the IC50 (as a rule, the concentration that inhibits the measured activity by half) turned out to be 0.157 nM. The molecule further returned a Ligand Efficiency in [4] of -0.24.

B1: DTP2, Acetyl-(D-Tyr)-(D-Glu)-(D-Arg)-(D-Phe)-NH2 (peptide)
peptide: Ac-[dY][dE][dR][dF]-NH2
SMILES: CC(=O)N[C@H](Cc1ccc(O)cc1)C(=O)N[C@H](CCC(=O)O)C(=O)N[C@H](CCCNC(=N)N)C(=O)N[C@H](Cc1ccccc1)C(N)=O
As to B1, in assay [5], the half-maximal inhibitory concentration (IC50) stood at 0.19 nM.

B2: Ac-YDHQLys(Z)-NH2 (peptide)
peptide: Ac-YDHQK(Cbz)-NH2
SMILES: CC(=O)N[C@@H](Cc1ccc(O)cc1)C(=O)N[C@@H](CC(=O)O)C(=O)N[C@@H](Cc1c[nH]cn1)C(=O)N[C@@H](CCC(N)=O)C(=O)N[C@@H](CCCCNC(=O)OCc1ccccc1)C(N)=O
Take B2: the % Inhibition of Gadd45β-MKK7 binding in [2] was determined as 2%.

B3: Ac-YERFLys(Z)-NH2 (peptide)
peptide: Ac-YERFK(Cbz)-NH2
SMILES: CC(=O)N[C@@H](Cc1ccc(O)cc1)C(=O)N[C@@H](CCC(=O)O)C(=O)N[C@@H](CCCNC(=N)N)C(=O)N[C@@H](Cc1ccccc1)C(=O)N[C@@H](CCCCNC(=O)OCc1ccccc1)C(N)=O
For B3, in assay [2], the % Inhibition of Gadd45β-MKK7 binding stood at 6%.

B4: Fmoc(βAla)2-YDHR-NH2 (peptide)
peptide: {Fmoc-βAla-βAla}-YDHR-NH2
SMILES: N=C(N)NCCC[C@H](NC(=O)[C@H](Cc1c[nH]cn1)NC(=O)[C@H](CC(=O)O)NC(=O)[C@H](Cc1ccc(O)cc1)NC(=O)CCNC(=O)CCNC(=O)OCC1c2ccccc2-c2ccccc21)C(N)=O
On to B4, for which the % Inhibition of Gadd45β-MKK7 binding in [1] was determined as 2%.

B5: DTP1, Acetyl-(D-Tyr)-(D-Asp)-(D-His)-(D-Phe)-NH2 (peptide)
peptide: Ac-[dY][dD][dH][dF]-NH2
SMILES: CC(=O)N[C@H](Cc1ccc(O)cc1)C(=O)N[C@H](CC(=O)O)C(=O)N[C@H](Cc1c[nH]cn1)C(=O)N[C@H](Cc1ccccc1)C(N)=O
With B5, the IC50 in [5] worked out at 0.22 nM.

Consider Ac-YDHF-NH2 (also called Ac-LTP1; LTP1) [Ac-YDHF-NH2], for which the “% Inhibition of Gadd45β-MKK7 binding” value in assay [6] was 94%. The IC50 in assay [7] came to 0.4 nM.

B6: Ac-YDHFLys(Z)-NH2 (peptide)
peptide: Ac-YDHFK(Cbz)-NH2
SMILES: CC(=O)N[C@@H](Cc1ccc(O)cc1)C(=O)N[C@@H](CC(=O)O)C(=O)N[C@@H](Cc1c[nH]cn1)C(=O)N[C@@H](Cc1ccccc1)C(=O)N[C@@H](CCCCNC(=O)OCc1ccccc1)C(N)=O
In assay [2], B6 came in with a % Inhibition of Gadd45β-MKK7 binding of 8%.

Turning to Ac-AERF-NH2 [Ac-AERF-NH2], the % Inhibition of Gadd45β-MKK7 binding in [2] was 7%.

In [2], {3‑OH‑4MeO‑benzoic acid}-YDHQ-NH2 (not fully specified) [3-OH-4MeO-Benzoid acid-YDHQ-NH2] returned a % Inhibition of Gadd45β-MKK7 binding of 7%.

For the molecule Cbz-[dY][dE][dR][dF]-NH2 [Z-DTP2 (Z-D-Tyr-D-Glu-D-Arg-D-Phe-NH2)], the IC50 was 0.19 nM in assay [3], 0.18 nM in [8] and 0.18 nM in assay [9]. Besides, in assay [4], the Ligand Efficiency was -0.26.

Regarding Ac-YERF-NH2 (also called Ac-LTP2; LTP2) [Ac-YERF-NH2], the “% Inhibition of Gadd45β-MKK7 binding” value in [6] was found to be 93%. In assay [7], the IC50 was 0.4 nM.

B7: Fmoc(βAla)2-YDHH-NH2 (peptide)
peptide: {Fmoc-βAla-βAla}-YDHH-NH2
SMILES: NC(=O)[C@H](Cc1c[nH]cn1)NC(=O)[C@H](Cc1c[nH]cn1)NC(=O)[C@H](CC(=O)O)NC(=O)[C@H](Cc1ccc(O)cc1)NC(=O)CCNC(=O)CCNC(=O)OCC1c2ccccc2-c2ccccc21
B7: the “% Inhibition of Gadd45β-MKK7 binding” value in assay [10] came out at 40%.

B8: Fmoc(βAla)2-YDHY-NH2 (peptide)
peptide: {Fmoc-βAla-βAla}-YDHY-NH2
SMILES: NC(=O)[C@H](Cc1ccc(O)cc1)NC(=O)[C@H](Cc1c[nH]cn1)NC(=O)[C@H](CC(=O)O)NC(=O)[C@H](Cc1ccc(O)cc1)NC(=O)CCNC(=O)CCNC(=O)OCC1c2ccccc2-c2ccccc21
Turning to B8, the “% Inhibition of Gadd45β-MKK7 binding” value in assay [10] worked out at 63%.

B9: Fmoc(βAla)2-YDHM-NH2 (peptide)
peptide: {Fmoc-βAla-βAla}-YDHM-NH2
SMILES: CSCC[C@H](NC(=O)[C@H](Cc1c[nH]cn1)NC(=O)[C@H](CC(=O)O)NC(=O)[C@H](Cc1ccc(O)cc1)NC(=O)CCNC(=O)CCNC(=O)OCC1c2ccccc2-c2ccccc21)C(N)=O
With B9, the “% Inhibition of Gadd45β-MKK7 binding” value in assay [10] came out at 14%.

On to {Fmoc-βAla-βAla}-YDHQ-NH2 [Fmoc(βAla)2-YDHQ-NH2], for which the “% Inhibition of Gadd45β-MKK7 binding” value in [10] was determined as 0%.

B10: Fmoc(βAla)2-YDHP-NH2 (peptide)
peptide: {Fmoc-βAla-βAla}-YDHP-NH2
SMILES: NC(=O)[C@@H]1CCCN1C(=O)[C@H](Cc1c[nH]cn1)NC(=O)[C@H](CC(=O)O)NC(=O)[C@H](Cc1ccc(O)cc1)NC(=O)CCNC(=O)CCNC(=O)OCC1c2ccccc2-c2ccccc21
Turning to B10, the “% Inhibition of Gadd45β-MKK7 binding” value in assay [10] was 16%.

B11: Fmoc(βAla)2-YDHL-NH2 (peptide)
peptide: {Fmoc-βAla-βAla}-YDHL-NH2
SMILES: CC(C)C[C@H](NC(=O)[C@H](Cc1c[nH]cn1)NC(=O)[C@H](CC(=O)O)NC(=O)[C@H](Cc1ccc(O)cc1)NC(=O)CCNC(=O)CCNC(=O)OCC1c2ccccc2-c2ccccc21)C(N)=O
Take B11: the “% Inhibition of Gadd45β-MKK7 binding” value in [10] amounted to 33%.

B12: Fmoc(βAla)2-YDHS-NH2 (peptide)
peptide: {Fmoc-βAla-βAla}-YDHS-NH2
SMILES: NC(=O)[C@H](CO)NC(=O)[C@H](Cc1c[nH]cn1)NC(=O)[C@H](CC(=O)O)NC(=O)[C@H](Cc1ccc(O)cc1)NC(=O)CCNC(=O)CCNC(=O)OCC1c2ccccc2-c2ccccc21
B12: the “% Inhibition of Gadd45β-MKK7 binding” value in assay [10] is 0%.

For the molecule Cbz-[dY][dD][dH][dF]-NH2 [Z-Tyr-Asp-His-Phe-NH2 (Z-DTP1)], the IC50 in assay [3] came to 0.22 nM; in assay [8] it was 0.19 nM; in assay [9], 0.19 nM.

Bz-YDHQ-NH2 [Benzoic acid-YDHQ-NH2] registered a % Inhibition of Gadd45β-MKK7 binding in [2] of 1%.

In assay [2], Ac-YDHQ-NH2 [Ac-YDHQ-NH2] displayed a % Inhibition of Gadd45β-MKK7 binding of 99%.

Cbz-YD(OMe)HQ-NH2 [Z-YD(OMe)HQ-NH2] came in with a % Inhibition of Gadd45β-MKK7 binding in assay [2] of 3%.
